Measured values taken from patent US20250313634A1 (WUXI BIOLOGICS SHANGHAI, published 2025).

How the values were obtained:
Assay in all cases: capture ELISA on coated 1.14.4; relative to silent alanine substitutions
[1] = biological target: T1, hPD-L1_ECD.His point mutant F191A (human, UniProt Q9NZQ7 19-238)
T1 construct: extracellular domain
Outline: (§1)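 Capture ELISA in which supernatant containing quantified PD-L1 alanine mutant was detected with HRP anti-His antibody. Absorbance was normalized to the average of control mutants. Epitope residues were called at binding fold change <0.55.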

[2] = biological target: T2, hPD-L1_ECD.His point mutant G33A (human, UniProt Q9NZQ7 19-238)
T2 construct: extracellular domain
T2 sequence (Q9NZQ7 19-238 G33A): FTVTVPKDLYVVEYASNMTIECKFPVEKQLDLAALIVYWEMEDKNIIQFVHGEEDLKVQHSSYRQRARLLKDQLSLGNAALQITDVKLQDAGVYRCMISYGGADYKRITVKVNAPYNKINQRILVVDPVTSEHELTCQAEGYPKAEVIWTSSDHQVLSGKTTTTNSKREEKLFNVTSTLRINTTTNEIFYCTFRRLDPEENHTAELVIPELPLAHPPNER
Outline: as §1

[3] = biological target: T3, hPD-L1_ECD.His point mutant N63A (human, UniProt Q9NZQ7 19-238)
T3 construct: extracellular domain
T3 sequence (Q9NZQ7 19-238 N63A): as the sequence (Q9NZQ7 19-238 G33A) above, with A15G, N45A counted along it
Outline: as §1

[4] = biological target: T4, hPD-L1_ECD.His point mutant R125A (human, UniProt Q9NZQ7 19-238)
T4 construct: extracellular domain
T4 sequence (Q9NZQ7 19-238 R125A): as the sequence (Q9NZQ7 19-238 G33A) above, with A15G, R107A counted along it
Outline: as §1

[5] = biological target: T5, hPD-L1_ECD.His point mutant M59A (human, UniProt Q9NZQ7 19-238)
T5 construct: extracellular domain
T5 sequence (Q9NZQ7 19-238 M59A): as the sequence (Q9NZQ7 19-238 G33A) above, with A15G, M41A counted along it
Outline: as §1

[6] = biological target: T6, hPD-L1_ECD.His point mutant K185A (human, UniProt Q9NZQ7 19-238)
T6 construct: extracellular domain
T6 sequence (Q9NZQ7 19-238 K185A): as the sequence (Q9NZQ7 19-238 G33A) above, with A15G, K167A counted along it
Outline: as §1

[7] = biological target: T7, hPD-L1_ECD.His point mutant D61A (human, UniProt Q9NZQ7 19-238)
T7 construct: extracellular domain
T7 sequence (Q9NZQ7 19-238 D61A): as the sequence (Q9NZQ7 19-238 G33A) above, with A15G, D43A counted along it
Outline: as §1

[8] = biological target: T8, hPD-L1_ECD.His point mutant V76A (human, UniProt Q9NZQ7 19-238)
T8 construct: extracellular domain
T8 sequence (Q9NZQ7 19-238 V76A): as the sequence (Q9NZQ7 19-238 G33A) above, with A15G, V58A counted along it
Outline: as §1

[9] = biological target: T9, hPD-L1_ECD.His point mutant E58A (human, UniProt Q9NZQ7 19-238)
T9 construct: extracellular domain
T9 sequence (Q9NZQ7 19-238 E58A): as the sequence (Q9NZQ7 19-238 G33A) above, with A15G, E40A counted along it
Outline: as §1

[10] = biological target: T10, hPD-L1_ECD.His point mutant Y32A (human, UniProt Q9NZQ7 19-238)
T10 construct: extracellular domain
T10 sequence (Q9NZQ7 19-238 Y32A): as the sequence (Q9NZQ7 19-238 G33A) above, with Y14A, A15G counted along it
Outline: as §1

[11] = biological target: T11, hPD-L1_ECD.His point mutant V128A (human, UniProt Q9NZQ7 19-238)
T11 construct: extracellular domain
T11 sequence (Q9NZQ7 19-238 V128A): as the sequence (Q9NZQ7 19-238 G33A) above, with A15G, V110A counted along it
Outline: as §1

[12] = biological target: T12, hPD-L1_ECD.His point mutant G70A (human, UniProt Q9NZQ7 19-238)
T12 construct: extracellular domain
T12 sequence (Q9NZQ7 19-238 G70A): as the sequence (Q9NZQ7 19-238 G33A) above, with A15G, G52A counted along it
Outline: as §1

[13] = biological target: T13, hPD-L1_ECD.His point mutant K62A (human, UniProt Q9NZQ7 19-238)
T13 construct: extracellular domain
T13 sequence (Q9NZQ7 19-238 K62A): as the sequence (Q9NZQ7 19-238 G33A) above, with A15G, K44A counted along it
Outline: as §1

[14] = biological target: T14, hPD-L1_ECD.His point mutant A51G (human, UniProt Q9NZQ7 19-238)
T14 construct: extracellular domain
T14 sequence (Q9NZQ7 19-238 A51G): as the sequence (Q9NZQ7 19-238 G33A) above, with A15G, A33G counted along it
Outline: as §1

[15] = biological target: T15, hPD-L1_ECD.His point mutant Q100A (human, UniProt Q9NZQ7 19-238)
T15 construct: extracellular domain
T15 sequence (Q9NZQ7 19-238 Q100A): as the sequence (Q9NZQ7 19-238 G33A) above, with A15G, Q82A counted along it
Outline: as §1

[16] = biological target: T16, hPD-L1_ECD.His point mutant E237A (human, UniProt Q9NZQ7 19-238)
T16 construct: extracellular domain
T16 sequence (Q9NZQ7 19-238 E237A): as the sequence (Q9NZQ7 19-238 G33A) above, with A15G, E219A counted along it
Outline: as §1

[17] = biological target: T17, hPD-L1_ECD.His point mutant L50A (human, UniProt Q9NZQ7 19-238)
T17 construct: extracellular domain
T17 sequence (Q9NZQ7 19-238 L50A): as the sequence (Q9NZQ7 19-238 G33A) above, with A15G, L32A counted along it
Outline: as §1

[18] = biological target: T18, hPD-L1_ECD.His point mutant V143A (human, UniProt Q9NZQ7 19-238)
T18 construct: extracellular domain
T18 sequence (Q9NZQ7 19-238 V143A): as the sequence (Q9NZQ7 19-238 G33A) above, with A15G, V125A counted along it
Outline: as §1

[19] = biological target: T19, hPD-L1_ECD.His point mutant S79A (human, UniProt Q9NZQ7 19-238)
T19 construct: extracellular domain
T19 sequence (Q9NZQ7 19-238 S79A): as the sequence (Q9NZQ7 19-238 G33A) above, with A15G, S61A counted along it
Outline: as §1

[20] = biological target: T20, hPD-L1_ECD.His point mutant E217A (human, UniProt Q9NZQ7 19-238)
T20 construct: extracellular domain
T20 sequence (Q9NZQ7 19-238 E217A): as the sequence (Q9NZQ7 19-238 G33A) above, with A15G, E199A counted along it
Outline: as §1

[21] = biological target: T21, hPD-L1_ECD.His point mutant Q77A (human, UniProt Q9NZQ7 19-238)
T21 construct: extracellular domain
T21 sequence (Q9NZQ7 19-238 Q77A): as the sequence (Q9NZQ7 19-238 G33A) above, with A15G, Q59A counted along it
Outline: as §1

[22] = biological target: T22, hPD-L1_ECD.His point mutant N96A (human, UniProt Q9NZQ7 19-238)
T22 construct: extracellular domain
T22 sequence (Q9NZQ7 19-238 N96A): as the sequence (Q9NZQ7 19-238 G33A) above, with A15G, N78A counted along it
Outline: as §1

[23] = biological target: T23, hPD-L1_ECD.His point mutant E71A (human, UniProt Q9NZQ7 19-238)
T23 construct: extracellular domain
T23 sequence (Q9NZQ7 19-238 E71A): as the sequence (Q9NZQ7 19-238 G33A) above, with A15G, E53A counted along it
Outline: as §1

[24] = biological target: T24, hPD-L1_ECD.His point mutant A109G (human, UniProt Q9NZQ7 19-238)
T24 construct: extracellular domain
T24 sequence (Q9NZQ7 19-238 A109G): as the sequence (Q9NZQ7 19-238 G33A) above, with A15G, A91G counted along it
Outline: as §1

[25] = biological target: T25, hPD-L1_ECD.His point mutant D49A (human, UniProt Q9NZQ7 19-238)
T25 construct: extracellular domain
T25 sequence (Q9NZQ7 19-238 D49A): as the sequence (Q9NZQ7 19-238 G33A) above, with A15G, D31A counted along it
Outline: as §1

[26] = biological target: T26, hPD-L1_ECD.His point mutant Q47A (human, UniProt Q9NZQ7 19-238)
T26 construct: extracellular domain
T26 sequence (Q9NZQ7 19-238 Q47A): as the sequence (Q9NZQ7 19-238 G33A) above, with A15G, Q29A counted along it
Outline: as §1

T1 sequence (Q9NZQ7 19-238 F191A): as the sequence (Q9NZQ7 19-238 G33A) above, with A15G, F173A counted along it

B1: 1.14.4 (antibody, V domains shown)
VH: EVQLLESGGGLVQPGGSLRLSCAASGFTFSSYAMSWVRQAPGKGLEWVSGISGSGGFTYYADSVKGRFTISRDNSKNTLYLQMNSLRAEDTAVYYCAKPPRGYNYGPFDYWGQGTLVTVSS
VL: SYVLTQPPSVSVAPGQTARITCGGNNIGSKSVHWYQQKPGQAPVLVVYDDSDRPSGIPERFSGSNSGNTATLTISRVEAGDEADYYCQVWDSSSDHVVFGGGTKLTVL
notes: Fully human monoclonal antibody with a human constant region of IgG4 isotype
B1 was tested, and the fold change [1] was 0.897 fold, the fold change [2] was 0.807 fold and the fold change [3] was 0.285 fold. The fold change [4] was 0.959 fold, the fold change [5] was 1.01 fold and the fold change [6] was 0.853 fold. The fold change [7] was 0.372 fold, the fold change [8] was 0.76 fold and the fold change [9] was 0.399 fold. For the same binder, the fold change [10] was 0.935 fold, the fold change [11] was 0.701 fold and the fold change [12] was 0.602 fold. It also gave a fold change [13] of 0.169 fold, a fold change [14] of 1.03 fold and a fold change [15] of 1.01 fold. It also gave a fold change [16] of 0.956 fold, a fold change [17] of 0.614 fold and a fold change [18] of 1.02 fold. It also gave a fold change [19] of 0.962 fold, a fold change [20] of 0.823 fold and a fold change [21] of 1.01 fold. The fold change [22] was 0.924 fold, the fold change [23] was 0.772 fold and the fold change [24] was 0.797 fold. The fold change [25] was 0.603 fold and the fold change [26] was 1.05 fold.
